Results as given in publication doi:10.1101/575795.
pKd, pKi: −log10 of the molar value.

target: CCR5-SNAP labeled with Alexa-488 (CCR5-SNAP-488) (human) (UniProt P51681); test: fluorescence cross-correlation spectroscopy
UniProt P51681, sequence (P51681 whole entry): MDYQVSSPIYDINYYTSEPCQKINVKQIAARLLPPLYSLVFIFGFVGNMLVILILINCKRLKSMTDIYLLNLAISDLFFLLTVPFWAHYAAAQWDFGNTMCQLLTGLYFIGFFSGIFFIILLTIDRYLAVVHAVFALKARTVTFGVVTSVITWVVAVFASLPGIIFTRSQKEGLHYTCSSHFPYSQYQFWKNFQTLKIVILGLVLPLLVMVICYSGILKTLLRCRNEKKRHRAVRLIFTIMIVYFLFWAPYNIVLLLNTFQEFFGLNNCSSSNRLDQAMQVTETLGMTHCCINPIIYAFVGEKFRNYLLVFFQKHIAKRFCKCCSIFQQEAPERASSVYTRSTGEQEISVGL

Substance | pKd | pKi
Alexa-647-labeled 5P14-RANTES (5P14-647) (from UniProt P13501 24-91) (ligand) | 9.32 | –
6P4-RANTES, non-labeled (from UniProt P13501 24-91) (ligand) | – | 8.46

More lines, now with the values ahead:

pKd | pKi | Substance
9.43 | – | Alexa-647-labeled 5P12-RANTES (5P12-647) (from UniProt P13501 24-91) (ligand)
7.98 | – | Alexa-647-labeled 6P4-RANTES (6P4-647) (from UniProt P13501 24-91) (ligand)
– | 9.85 | 5P12-RANTES, non-labeled (from UniProt P13501 24-91) (ligand)
8.18 | – | Alexa-647-labeled PSC-RANTES (PSC-647) (from UniProt P13501 24-91) (ligand)
